Legend:
[1] = target: T1, human PD-L1-his (Sino Biologics) (human, UniProt Q9NZQ7 19-238); test: competition ELISA: human PD-L1-his coated at 1 µg/ml, antibody dilutions, then human PD-1-mouse-Fc at 1 µg/ml, anti-mouse IgG-HRP, OD 650 nm
T1 construct: Bought from Sino Biologics; not shown: his tag
Protocol: Plates were coated with 100 μl of 1 μg/ml human PD-L1-his (Sino Biologics, Beijing, China) in carbonate-bicarbonate buffer overnight. After washing, plates were blocked with PBS 0.05% Tween-20 for 1 hour, and serial dilutions of anti-PD-L1 human chimeric antibody or IgG1 isotype control antibody was added. […] After washing, goat anti-mouse IgG (H+L)-HRP antibody (Jackson ImmunoResearch West Grove, Pa.) and plates were further incubated for 1 hour. After washing, TMB substrate (SurModics, Eden Prairie, Minn.) was added. The reaction was stopped using stop solution (SurModics) and plates were read at OD=650 nanometer.

[2] = target: T2, recombinant cynomolgus monkey PD-L1 (cynomolgus monkey, UniProt G7PSE7 19-238); test: direct ELISA on plate-coated recombinant cynomolgus monkey PD-L1; anti-human Fc-HRP, TMB, OD 650 nm
T2 construct: also called cynomolgus macaque PD-L1
Protocol: (§1) To assess specificity of the selected clones, a direct ELISA for human and cynomolgus monkey PD-L1 was performed. ELISA plates were coated with recombinant human or cynomolgus monkey PD-L1. […] Serial dilutions of chimeric anti-PD-L1 antibodies were added, and a secondary HRP-conjugated, anti-human Fc-specific antibody was added. After washing, TMB substrate was added and plates were read at OD 650 nm.

[3] = target: T3, human PD-L1 on cells (human, UniProt Q9NZQ7 19-290); test: flow cytometry on CD4 T cells activated with anti-CD3; MFI; column head prints only EC50, unit taken from the axis Antibody Concentration (nM)
T3 construct: whole, on cells; also called HEK-PD-L1 cells; PD-L1-expressing HEK 293 cells

[4] = target: T3, human PD-L1 on cells; test: flow cytometry on monocyte-derived dendritic cells; PE anti-human Fc, MFI
Protocol: The chimeric PD-L1 antibodies were further assessed for their ability to bind to human myeloid-derived dendritic cells. CD14 monocytes were isolated from PBMC using directly conjugated magnetic beads (Miltenyi) and cultured for 7 days in the presence of GM-CSF (100 ng/ml) and IL-4 (50 ng/ml) (Peprotech) to generate myeloid dendritic cells (mDC). mDC were added to 96-well plates (100,000 cells/well) and serial dilution of anti-PD-L1 antibodies or IgG1 isotype control antibody was added in duplicates and plates were incubated for 30 min on ice. After washing, a PE-conjugated donkey anti-human Fc specific antibody (Jackson Immunoresearch, 1:200 dilution) was added and plates were further incubated for 15 minutes on ice. After washing, cells were analyzed using a MACS quant flow cytometer.

[5] = target: T4, recombinant human PD-L1 (human, UniProt Q9NZQ7 19-238, limits assumed); test: direct ELISA on plate-coated recombinant human PD-L1; anti-human Fc-HRP, TMB, OD 650 nm
T4 construct: also called PD-L1 protein
Protocol: as §1

[6] = target: T4, recombinant human PD-L1; test: ELISA on human PD-L1, OD 650 nm
[7] = target: T3, human PD-L1 on cells; test: flow cytometry on activated CD4 T cells, MFI
[8] = target: T3, human PD-L1 on cells; test: flow cytometry on human PD-L1 transfected HEK 293 cells; PE anti-human Fc, MFI
Protocol: Stable human PD-L1 transfected HEK 293 cells (Crown Bio, San Diego, Calif.) were added to 96-well plates (100,000 cells/well) and serial dilution of anti-PD-L1 antibodies or IgG1 isotype control antibody was added in duplicates and plates were incubated for 30 minutes on ice. After washing, a PE-conjugated donkey anti-human Fc specific antibody (Jackson Immunoresearch, West Grove, Pa. 1:200 dilution) was added and plates were further incubated for 15 minutes on ice. After washing, cells were analyzed using a MACS quant flow cytometer.

[9] = target: T3, human PD-L1 on cells; test: flow cytometry on monocyte-derived dendritic cells, saturation fit on a linear axis
[10] = target: T3, human PD-L1 on cells; test: flow cytometry on monocyte-derived dendritic cells, MFI
[11] = target: T3, human PD-L1 on cells; test: flow cytometry on activated CD4 T cells, saturation fit on a linear axis
[12] = target: T3, human PD-L1 on cells; test: flow cytometry on HEK PD-L1 cells, MFI
[13] = target: T3, human PD-L1 on cells; test: flow cytometry on HEK-PD-L1 cells, saturation fit on a linear axis; column head prints only Kd, unit taken from the axis Ab (nM)
[14] = target: T3, human PD-L1 on cells; test: flow cytometry on HEK PD-L1 cells, saturation fit on a linear axis
[15] = target: T3, human PD-L1 on cells; test: flow cytometry on HEK-PD-L1 cells; PE anti-human Fc, MFI

T2 sequence (G7PSE7 entry or part of it limits assumed): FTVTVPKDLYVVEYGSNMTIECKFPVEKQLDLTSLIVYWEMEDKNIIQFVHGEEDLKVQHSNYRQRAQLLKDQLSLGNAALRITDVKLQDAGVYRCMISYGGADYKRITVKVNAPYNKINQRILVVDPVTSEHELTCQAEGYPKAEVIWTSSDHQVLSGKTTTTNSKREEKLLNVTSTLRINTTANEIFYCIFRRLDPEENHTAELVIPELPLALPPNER
T4 sequence (Q9NZQ7 19-238 limits assumed): as the sequence (G7PSE7 entry or part of it limits assumed) above, with T33A, S34A, N62S, Q68R, R82Q, L173F, A185T, I192T, L215H counted along it
T3 sequence (Q9NZQ7 19-290): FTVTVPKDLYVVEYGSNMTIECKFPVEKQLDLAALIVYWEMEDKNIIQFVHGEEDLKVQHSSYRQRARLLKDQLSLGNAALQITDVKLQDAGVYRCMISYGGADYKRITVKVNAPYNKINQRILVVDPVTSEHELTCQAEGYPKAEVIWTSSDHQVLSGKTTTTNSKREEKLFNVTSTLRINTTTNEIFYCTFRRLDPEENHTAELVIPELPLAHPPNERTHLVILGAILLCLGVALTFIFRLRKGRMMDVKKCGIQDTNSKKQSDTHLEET
T1 sequence (Q9NZQ7 19-238 limits assumed): as the sequence (G7PSE7 entry or part of it limits assumed) above, with T33A, S34A, N62S, Q68R, R82Q, L173F, A185T, I192T, L215H counted along it

B1: chimeric anti-PD-L1 antibody 27H2 (antibody, human IgG1, V domains shown)
VH: QSLEESGGDLVKPGASLTLTCTASGFSFSSGDYMCWVRQAPGKGLEGIACIYGGSSGSTYYANWAKGRFTISKTSSTTVTLQMTSLAAADTATYFCARDFRDVGYGYASFRLWGPGILVTVSS
VL: DIVMTQTPASVSEPVGGTVTIKCQASQSISSWLSWYQQKPGQPPKLLIYGASNLESGVSSRFKGSGSGTEYTLTISDLECADAATYYCQSNYGSSSSSLNAFGGGTEVVVK
IC50 (read off the curve) [1]: ~0.02 µg/mL
binding result [2]: no binding (tested: 1000 ng/ml)
EC50 [3]: 750 pM

B2: chimeric anti-PD-L1 antibody 23D12 (antibody, human IgG1, V domains shown)
VH: QSVEESGGRLVTPGTPLTLTCTVSGFSLSNYVMGWVRQAPGKGLEYIGIISNSDNTYYATWATGRFTISKTSTTVDLKMTSLTTEDTATYFCARVDTYYNDFNLWGPGTLVTVSS
VL: QVLTQTPSSVEAAVGGTVTIKCQASEDIERYLAWYQQKPGQPPKQLIYDASKLASGVSSRFKGSGSGTEFTLTISGVQCDDAATYYCQHGYIYSSGNPFGGGTEVVVK
EC50 [4]: 1700 pM
EC50 (read off the curve) [2]: ~0.006 µg/mL
EC50 (read off the curve) [5]: ~0.007 µg/mL
EC50 [3]: 1300 pM

B3: h9A9-HZD1 (antibody, V domains shown)
VH: EVQLVESGGGLVQPGGSLRLSCAASGIDLSGYWMSWVRQAPGKGLEWVGIVDNDGSAYYASWVNGRFTISRDNSKNTLYLQMNSLRAEDTAVYYCARQSGDWTFDLWGQGTLVTVSS
VL: DIQMTQSPSTLSASVGDRVTITCQASQSIGRWLSWYQQKPGKAPKLLIYQASKLASGVPSRFSGSGSGTEFTLTISSLQPDDFATYYCQNNYDIIAYGNAFGGGTKVEIK
notes: also called humanized 9A9 HZD1
EC50 [6]: 0.0159 µg/mL

B4: h9A9-HZD2 (antibody, V domains shown)
VH: EVQLVESGGGLVQPGGSLRLSCAASGFDVSGYWMSWVRQAPGKGLEWVGIVDNDGSAYYASWVNGRFTISRDNSKNTLYLQMNSLRAEDTAVYYCARQSGDWTFDLWGQGTLVTVSS
VL: DIQMTQSPSTLSASVGDRVTITCQASQSIGRWLSWYQQKPGKAPKLLIYQASKLASGVPSRFSGSGSGTEFTLTISSLQPDDFATYYCQNNYDIIAYGNAFGGGTKVEIK
notes: also called humanized 9A9 HZD2
EC50 [6]: 0.0126 µg/mL

B5: h15E9_HZD1 (antibody, V domains shown)
VH: EVQLVESGGGLVQPGGSLRLSCAASGFDISNYWMSWVRQAPGKGLEWVGIISTGGNTWYASWVKGRFTISRDNSKNTLYLQMNSLRAEDTAVYYCARVVIYGGTTSSFNLWGQGTLVTVSS
VL: DIQMTQSPSSLSASVGDRVTITCQSSQNVYNKIRLSWYQQKPGKAPKELIYAASSLASGVPSRFSGSGSGTEFTLTISSLQPEDFATYYCQGGYSGPIYAFGGGTKVEIK
notes: also called humanized 15E9 HZD1
EC50 [6]: 0.267 µg/mL

B6: h15E9_HZD2 (antibody, V domains shown)
VH: EVQLVESGGGLVQPGGSLRLSCAASGFDISNYWMSWVRQAPGKGLEWVGIISTGGNTWYASWVKGRFTISRDNSKNTLYLQMNSLRAEDTAVYYCARVVIYGGTTSSFNLWGQGTLVTVSS
VL: DIQMTQSPSSLSASVGDRVTITCQSSQNVYNKIRLSWYQQKPGKAPKRLIYAASSLASGVPSRFSGSGSGTEFTLTISSLQPEDFATYYCQGGYSGPIYAFGGGTKVEIK
notes: also called humanized 15E9 HZD2
EC50 [6]: 1.62 µg/mL

B7: chimeric anti-PD-L1 antibody 15E9 (antibody, human IgG1, V domains shown)
VH: QSVEESGGRLVTPGTPLTLTCTVSGFDISNYWMSWVRQAPGKGLEYIGIISTGGNTWYASWVKGRFTISKTSTTVDLKMTSLTTEDTATYFCVRVVIYGGTTSSFNLWGPGTLVTVSS
VL: QVLTQTASPVSAAVGGTVTINCQSSQNVYNKIRLSWFQQKSGQPPKELIYAASSLASGVPSRFKGSGSGTEFTLTISDLECDDAATYYCQGGYSGPIYAFGGGTEVVVK
EC50 [4]: 1100 pM
EC50 [6]: 0.0138 µg/mL
EC50 [7]: 756 pM
EC50 [8]: 580 pM
Kd [9]: 420 pM
EC50 [10]: 900 pM
binding result [2]: no binding (tested: 1000 ng/ml)
EC50 (read off the curve) [5]: ~0.004 µg/mL
Kd [11]: 26 pM

B8: chimeric anti-PD-L1 antibody 43G2 (antibody, human IgG1, V domains shown)
VH: QSVEESGGRLVTPGTPLTLTCTVSGFSLSSYAMGWVRQAPGEGLEYIGFIDTHGSAYYATWAKGRFTISRTSTTVDLKITSPTTEDTATYFCARNVWTNAGYFNLWGPGTLVTVSS
VL: DVVMTQTPSSVSAAVGGTVTIKCQASQNIYTNLAWYQQKPGQPPKLLIYSASTLASGVPSRFKGSGSGTQFTLTISDLECADAATYYCQTYGALIINGGAFGGGTEVVVK
EC50 [4]: 1600 pM
EC50 (read off the curve) [2]: ~0.005 µg/mL
EC50 (read off the curve) [5]: ~0.006 µg/mL
EC50 [3]: 7700 pM

B9: chimeric anti-PD-L1 antibody 51D5 (antibody, human IgG1, V domains shown)
VH: QSVEESGGRLVTPGTPLTLTCIVSGFSLSSYWMSWVRRAPGKGLEWIGYINGGSGNPYYASWAKGRFTISKTSTTVDLKITSPTTEDTATYFCARGGESDDYVYGRYGLDPWGPGTLVTVSS
VL: AYDMTQTPASVSEPVGGTVTIKCQASQSISSWLSWYQQKPGQPPKLLIYDASKLASGVPSRFSGSGSGTQFTLTISDLECDDAATYYCQQDYSSYNVDNTFGGGTEVVVK
notes: also called chimeric 51D5; c51D5
EC50 [12]: 320 pM
EC50 [6]: 0.0117 µg/mL
Kd [13]: 910 pM
EC50 [7]: 1030 pM
Kd [14]: 160 pM
EC50 (read off the curve) [15]: ~1000 pM
Kd [9]: 500 pM
IC50 (read off the curve) [1]: ~0.2 µg/mL
EC50 [10]: 1120 pM
Kd [11]: 25 pM

B10: h51D5_HZD1 (antibody, V domains shown)
VH: EVQLVESGGGLVQPGGSLRLSCAASGFSLSSYWMSWVRRAPGKGLEWVGYINGGSGNPYYASWAKGRFTISRDNSKNTLYLQMNSLRAEDTAVYYCARGGESDDYVYGRYGLDPWGQGTLVTVSS
VL: DIQMTQSPSTLSASVGDRVTITCQASQSISSWLSWYQQKPGKAPKLLIYDASKLASGVPSRFSGSGSGTEFTLTISSLQPDDFATYYCQQDYSSYNVDNTFGGGTKVEIK
notes: also called humanized 51D5 HZD1
EC50 [6]: 0.0156 µg/mL

B11: h51D5_HZD2 (antibody, V domains shown)
VH: EVQLVESGGGLVQPGGSLRLSCAASGFSLSSYWMSWVRQAPGKGLEWVGYINGGSGNPYYASWAKGRFTISRDNSKNTLYLQMNSLRAEDTAVYYCARGGESDDYVYGRYGLDPWGQGTLVTVSS
VL: DIQMTQSPSTLSASVGDRVTITCQASQSISSWLSWYQQKPGKAPKLLIYDASKLASGVPSRFSGSGSGTEFTLTISSLQPDDFATYYCQQDYSSYNVDNTFGGGTKVEIK
notes: also called humanized 51D5 HZD2
EC50 [6]: 0.0169 µg/mL
